The target in the experiment is ENG-HA (endoglin, HA-tagged, ectopically expressed) (UniProt P17813). The experiment can be described thus: flow cytometry on cells; cells (HEK293T with or without ENG overexpression, DPSCs with or without ENG knockdown or anti-ENG pretreatment, HUVECs) incubated with His-tagged DSP (0.5 μg/ml) or BSA at 37 °C for 1 h; detected with anti-His-tag mAb-Alexa Fluor 488 and PE anti-human ENG antibody. Background: Flow cytometry measures light scatter and fluorescence of single cells or particles in a stream.
UniProt P17813, sequence (P17813 26-658): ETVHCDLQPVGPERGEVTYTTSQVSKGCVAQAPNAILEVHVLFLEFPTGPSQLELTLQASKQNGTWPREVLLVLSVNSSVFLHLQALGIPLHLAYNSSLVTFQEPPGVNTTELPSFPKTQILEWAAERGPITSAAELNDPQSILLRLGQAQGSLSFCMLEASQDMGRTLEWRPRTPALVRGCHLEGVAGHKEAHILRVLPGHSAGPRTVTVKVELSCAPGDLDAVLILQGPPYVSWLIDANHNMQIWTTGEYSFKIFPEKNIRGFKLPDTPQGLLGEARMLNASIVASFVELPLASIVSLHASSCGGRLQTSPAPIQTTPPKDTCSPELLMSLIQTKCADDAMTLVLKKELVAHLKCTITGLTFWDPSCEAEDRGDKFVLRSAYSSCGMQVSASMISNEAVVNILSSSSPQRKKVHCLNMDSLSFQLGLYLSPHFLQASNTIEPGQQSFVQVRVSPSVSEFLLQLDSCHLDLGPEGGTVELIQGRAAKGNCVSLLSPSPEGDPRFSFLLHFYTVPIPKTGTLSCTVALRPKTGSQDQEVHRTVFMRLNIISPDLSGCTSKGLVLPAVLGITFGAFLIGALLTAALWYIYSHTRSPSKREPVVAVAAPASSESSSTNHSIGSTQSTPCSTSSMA

As to “recombinant DSP-His protein (domain or fragment)”, the fold increase of the DSP-His signal on HEK293T cells with ectopic ENG against cells without was 7.5 fold.

The values above are taken from article PMC11910139.
